Molecular target: EGFR on HeLa cells (UniProt P00533 25-1210, limits assumed)
Experiment: cell-based or functional assay

| X… HeLa EC50 | Binder | Max killing % |
| --- | --- | --- |
| – | GOMP001_bsAb_031 (bispecific antibody, human IgG1, kappa, L234A L235A) heavy 1: QVQLVQSGAEVKKPGASVKVSCKASGYTFTSHWMHWVRKAPGQGLEWIGEFNPSNGRTNYNEEFKSKATMTVDTSTNTAYMELSSLRSEDTAVYYCASRDYDYDGRYFDYWGQGTLVTVSSASTKGPSVFPLAPSSKSTSGGTAALGCLVADYFPEPVTVSWNSGALTSGVHTFPAVLQSSGLYSLSSVVTVPSSSLGTQTYICNVNHKPSNTKVDEKVEPKSCDKTHTCPPCPAPEAAGGPSVFLFPPKPKDTLMISRTPEVTCVVVDVSHEDPEVKFNWYVDGVEVHNAKTKPREEQYNSTYRVVSVLTVLHQDWLNGKEYKCKVSNKALPAPIEKTISKAKGQPREPQVYTLPPSREEMTDNQVSLTCLVKGFYPSDIAVEWESNGQPENNYKTTPPVLMSDGSFFLASKLTVDKSRWQQGNVFSCSVMHEALHNHYTQKSLSLSPG light 1: RIQMTQSPSSLSASVGDRVTITCSASSSVTYMYWYQDKPGKAPKLLIYDTSNLASGVPSRFSGSGSGTDYTFTISSLQPEDIATYYCQQWSSHIFTFGQGTKVEIKRTVAAPSVFIFPPSDKQLKSGTARVVCLLNNFYPREAKVQWKVDNALQSGNSQESVTEQDSKDSTYSLSSTLTLSKADYEKHKVYACEVTHQGLSSPVTKSFNRGEC heavy 2: QGQLVESGGGVVQPGRSLRLSCAASGFTFRGFGMHWVRYAPGKGLEWVAIIYYDGKNKYYADRVKGRFTISRDNSKNTLYLQMNSLRAEDTAVYYCAKGGGYNWFDPWGRGTLVTVSSASTKGPSVFPLAPSSKSTSGGTAALGCLVKDYFPEPVTVSWNSGALTSGVHTFPAVLQSSGLYSLSSVVTVPSSSLGTQTYICNVNHKPSNTKVDKKVEPKSCDKTHTCPPCPAPEAAGGPSVFLFPPKPKDTLMISRTPEVTCVVVDVSHEDPEVKFNWYVDGVEVHNAKTKPREEQYNSTYRVVSVLTVLHQDWLNGKEYKCKVSNKALPAPIEKTISKAKGQPRRPRVYTLPPSREEMTKNQVSLVCLVKGFYPSDIAVEWESNGQPENNYKTTPPVLDSDGSFFLYSVLTVDKSRWQQGNVFSCSVMHEALHNHYTQKSLSLSPG light 2: DIQMTQSPSSLSASVGDRVTITCRASQSISTYLNWYQRKPGDAPKLLIYSASSLQSGVPSRFSGSGSGTDFTLTISNLQPEDFAIYYCQRSYSPPFTFGPGTKLDIRRTVAAPSVFIFPPSDEQLKSGTASVVCLLNNFYPREAKVQWKVDNALQSGNSQESVTEQDSKDSTYSLSSTLTLSKADYEKHKVYACEVTHQGLSSPVTKSFNRGEC | 68.8% |
| 0.174 nM | GOMP001_bsAb_037 (bispecific antibody, human IgG1, kappa, L234A L235A) heavy 1: QVQLVQSGAEVKKPGASVKVSCKASGYTFTSHWMHWVRKAPGQGLEWIGEFNPSNGRTNYNEEFKSKATMTVDTSTNTAYMELSSLRSEDTAVYYCASRDYDYDGRYFDYWGQGTLVTVSSASTKGPSVFPLAPSSKSTSGGTAALGCLVADYFPEPVTVSWNSGALTSGVHTFPAVLQSSGLYSLSSVVTVPSSSLGTQTYICNVNHKPSNTKVDEKVEPKSCDKTHTCPPCPAPEAAGGPSVFLFPPKPKDTLMISRTPEVTCVVVDVSHEDPEVKFNWYVDGVEVHNAKTKPREEQYNSTYRVVSVLTVLHQDWLNGKEYKCKVSNKALPAPIEKTISKAKGQPREPQVYTLPPSREEMTDNQVSLTCLVKGFYPSDIAVEWESNGQPENNYKTTPPVLMSDGSFFLASKLTVDKSRWQQGNVFSCSVMHEALHNHYTQKSLSLSPG light 1: RIQMTQSPSSLSASVGDRVTITCSASSSVTYMYWYQDKPGKAPKLLIYDTSNLASGVPSRFSGSGSGTDYTFTISSLQPEDIATYYCQQWSSHIFTFGQGTKVEIKRTVAAPSVFIFPPSDKQLKSGTARVVCLLNNFYPREAKVQWKVDNALQSGNSQESVTEQDSKDSTYSLSSTLTLSKADYEKHKVYACEVTHQGLSSPVTKSFNRGEC heavy 2: EVQLVESGGVLVKTGGSLRLSCVASGFSFKKAWMNWVRYAPGKGLEWVGRIKRNSDGGAADYAARVKDRFTLSRDDSKNTLYLQMNSLKTEDTAVYYCTTLDSSSWYVGYYYMDVWGRGTTVTVSSASTKGPSVFPLAPSSKSTSGGTAALGCLVKDYFPEPVTVSWNSGALTSGVHTFPAVLQSSGLYSLSSVVTVPSSSLGTQTYICNVNHKPSNTKVDKKVEPKSCDKTHTCPPCPAPEAAGGPSVFLFPPKPKDTLMISRTPEVTCVVVDVSHEDPEVKFNWYVDGVEVHNAKTKPREEQYNSTYRVVSVLTVLHQDWLNGKEYKCKVSNKALPAPIEKTISKAKGQPRRPRVYTLPPSREEMTKNQVSLVCLVKGFYPSDIAVEWESNGQPENNYKTTPPVLDSDGSFFLYSVLTVDKSRWQQGNVFSCSVMHEALHNHYTQKSLSLSPG light 2: DIHMTQSPSSVSASLGDRVTFTCRASQNINNWLAWYQRKPGDAPKLLIYTASSLQSGVPSRFSGSGSGTDFTLTISSLQPDDFATYYCQQAHSLPITFGQGTRLGIKRTVAAPSVFIFPPSDEQLKSGTASVVCLLNNFYPREAKVQWKVDNALQSGNSQESVTEQDSKDSTYSLSSTLTLSKADYEKHKVYACEVTHQGLSSPVTKSFNRGEC | 83.6% |
| 0.061 nM | GOMP001_bsAb_032 (bispecific antibody, human IgG1, kappa, L234A L235A) heavy 1: QGQLVESGGGVVQPGRSLRLSCAASGFTFRGFGMHWVRKAPGKGLEWVAIIYYDGKNKYYADEVKGRFTISRDNSKNTLYLQMNSLRAEDTAVYYCAKGGGYNWFDPWGQGTLVTVSSASTKGPSVFPLAPSSKSTSGGTAALGCLVADYFPEPVTVSWNSGALTSGVHTFPAVLQSSGLYSLSSVVTVPSSSLGTQTYICNVNHKPSNTKVDEKVEPKSCDKTHTCPPCPAPEAAGGPSVFLFPPKPKDTLMISRTPEVTCVVVDVSHEDPEVKFNWYVDGVEVHNAKTKPREEQYNSTYRVVSVLTVLHQDWLNGKEYKCKVSNKALPAPIEKTISKAKGQPREPQVYTLPPSREEMTDNQVSLTCLVKGFYPSDIAVEWESNGQPENNYKTTPPVLMSDGSFFLASKLTVDKSRWQQGNVFSCSVMHEALHNHYTQKSLSLSPG light 1: RIQMTQSPSSLSASVGDRVTITCRASQSISTYLNWYQDKPGKAPKLLIYSASSLQSGVPSRFSGSGSGTDFTLTISNLQPEDFAIYYCQRSYSPPFTFGPGTKLDIRRTVAAPSVFIFPPSDKQLKSGTARVVCLLNNFYPREAKVQWKVDNALQSGNSQESVTEQDSKDSTYSLSSTLTLSKADYEKHKVYACEVTHQGLSSPVTKSFNRGEC heavy 2: QVQLVQSGAEVKKPGASVKVSCKASGYTFTSHWMHWVRYAPGQGLEWIGEFNPSNGRTNYNEKFKSKATMTVDTSTNTAYMELSSLRSEDTAVYYCASRDYDYDGRYFDYWGRGTLVTVSSASTKGPSVFPLAPSSKSTSGGTAALGCLVKDYFPEPVTVSWNSGALTSGVHTFPAVLQSSGLYSLSSVVTVPSSSLGTQTYICNVNHKPSNTKVDKKVEPKSCDKTHTCPPCPAPEAAGGPSVFLFPPKPKDTLMISRTPEVTCVVVDVSHEDPEVKFNWYVDGVEVHNAKTKPREEQYNSTYRVVSVLTVLHQDWLNGKEYKCKVSNKALPAPIEKTISKAKGQPRRPRVYTLPPSREEMTKNQVSLVCLVKGFYPSDIAVEWESNGQPENNYKTTPPVLDSDGSFFLYSVLTVDKSRWQQGNVFSCSVMHEALHNHYTQKSLSLSPG light 2: DIQMTQSPSSLSASVGDRVTITCSASSSVTYMYWYQRKPGDAPKLLIYDTSNLASGVPSRFSGSGSGTDYTFTISSLQPEDIATYYCQQWSSHIFTFGQGTKVEIKRTVAAPSVFIFPPSDEQLKSGTASVVCLLNNFYPREAKVQWKVDNALQSGNSQESVTEQDSKDSTYSLSSTLTLSKADYEKHKVYACEVTHQGLSSPVTKSFNRGEC | 98.1% |
